# Measured values from the RNAGym collection of RNA variant scans (doi:10.7554/elife.80360).
# B1: Hairpin Ribozyme (parent)
# chain: GUCCUCUUUCACGUGCGCGUGAAAGAGAGAAGUGAACCAGAGAAACACACGUUGUGGUAUAUUACCUGGUA
# Variants of: B1
# Assay: self-cleavage, relative activity (ratio to wild type); higher = more cleavage; co-transcriptional
row,Variant,self-cleavage
1,GUCCUCUUUCACGUGCGCGUGAAAGAGAGAAGUGAACCAGAGAAACACACGUUAUGGUAUAUGACCUGGUA [G54A U63G],0.172
2,GUCCUCUUUCACGUGCGCGUGAAAGAGAGAAGUGAACCAGAGAAACACACGUUCUGGUAAAUUACCUGGUA [G54C U60A],0.272
3,GUCCUCUUUCACGUGCGCGUGAAAGAGAGAAGUGAACCAGAGAAACACACGUUCUGGUACAUUACCUGGUA [G54C U60C],0.47
4,GUCCUCUUUCACGUGCGCGUGAAAGAGAGAAGUGAACCAGAGAAACACACGUUACGGUAUAUUACCUGGUA [G54A U55C],0.502
5,GUCCUCUUUCACGUGCGCGUGAAAGAGAGAAGUGAACCAGAGAAACACACGUUCGGGUAUAUUACCUGGUA [G54C U55G],0.25
6,GUCCUCUUUCACGUGCGCGUGAAAGAGAGAAGUGAACCAGAGAAACACACGUGGUGGUAUAGUACCUGGUA [U53G U62G],0.315
7,GUCCUCUUUCACGUGCGCGUGAAAGAGAGAAGUGAACCAGAGAAACACACGUUCUGGUAUAUUACCAGGUA [G54C U67A],0.167
8,GUCCUCUUUCACGUGCGCGUGAAAGAGAGAAGUGAACCAGAGAAACACACGUUCUGGUAUAUUGCCUGGUA [G54C A64G],0.18
9,GUCCUCUUUCACGUGCGCGUGAAAGAGAGAAGUGAACCAGAGAAACACACGUGGUGGUAUAUUACCUGGGA [U53G U70G],0.848
10,GUCCUCUUUCACGUGCGCGUGAAAGAGAGAAGUGAACCAGAGAAACACACGUCGUGGUAUAUUACCCGGUA [U53C U67C],0.279
11,GUCCUCUUUCACGUGCGCGUGAAAGAGAGAAGUGAACCAGAGAAACACACGUCGUGGUAUAUUACCAGGUA [U53C U67A],0.28
12,GUCCUCUUUCACGUGCGCGUGAAAGAGAGAAGUGAACCAGAGAAACACACGUCGUGGUAUAUUACCGGGUA [U53C U67G],0.462
13,GUCCUCUUUCACGUGCGCGUGAAAGAGAGAAGUGAACCAGAGAAACACACGUCGUGGUAUAUUACAUGGUA [U53C C66A],0.249
14,GUCCUCUUUCACGUGCGCGUGAAAGAGAGAAGUGAACCAGAGAAACACACGUCGUGGUAUAUUACUUGGUA [U53C C66U],0.69
15,GUCCUCUUUCACGUGCGCGUGAAAGAGAGAAGUGAACCAGAGAAACACACGUUAUGGUAUAUUACGUGGUA [G54A C66G],0.113
16,GUCCUCUUUCACGUGCGCGUGAAAGAGAGAAGUGAACCAGAGAAACACACGUGGUGGUAUAUUCCCUGGUA [U53G A64C],0.0581
17,GUCCUCUUUCACGUGCGCGUGAAAGAGAGAAGUGAACCAGAGAAACACACGUGGUGGUAUUUUACCUGGUA [U53G A61U],0.186
18,GUCCUCUUUCACGUGCGCGUGAAAGAGAGAAGUGAACCAGAGAAACACACGUGGUGGCAUAUUACCUGGUA [U53G U58C],0.987
19,GUCCUCUUUCACGUGCGCGUGAAAGAGAGAAGUGAACCAGAGAAACACACGUGGUGGGAUAUUACCUGGUA [U53G U58G],0.405
20,GUCCUCUUUCACGUGCGCGUGAAAGAGAGAAGUGAACCAGAGAAACACACGUUAUGGUCUAUUACCUGGUA [G54A A59C],0.307
21,GUCCUCUUUCACGUGCGCGUGAAAGAGAGAAGUGAACCAGAGAAACACACGUUAUGGUAUCUUACCUGGUA [G54A A61C],0.192
22,GUCCUCUUUCACGUGCGCGUGAAAGAGAGAAGUGAACCAGAGAAACACACGUUAUGGUAUGUUACCUGGUA [G54A A61G],0.397
23,GUCCUCUUUCACGUGCGCGUGAAAGAGAGAAGUGAACCAGAGAAACACACGUCGUGGUAUCUUACCUGGUA [U53C A61C],0.142
24,GUCCUCUUUCACGUGCGCGUGAAAGAGAGAAGUGAACCAGAGAAACACACGUCGUGGUAUAUUACCUGGUU [U53C A71U],0.82
25,GUCCUCUUUCACGUGCGCGUGAAAGAGAGAAGUGAACCAGAGAAACACACGUUUUGGCAUAUUACCUGGUA [G54U U58C],0.713
26,GUCCUCUUUCACGUGCGCGUGAAAGAGAGAAGUGAACCAGAGAAACACACGUUUUUGUAUAUUACCUGGUA [G54U G56U],0.203

row,Variant,self-cleavage
1,GUCCUCUUUCACGUGCGCGUGAAAGAGAGAAGUGAACCAGAGAAACACACGUUAUGGUAUAUUGCCUGGUA [G54A A64G],0.403
2,GUCCUCUUUCACGUGCGCGUGAAAGAGAGAAGUGAACCAGAGAAACACACGUUAUGGUAUAUUCCCUGGUA [G54A A64C],0.152
3,GUCCUCUUUCACGUGCGCGUGAAAGAGAGAAGUGAACCAGAGAAACACACGUUAUGGUAUAUUUCCUGGUA [G54A A64U],0.114
4,GUCCUCUUUCACGUGCGCGUGAAAGAGAGAAGUGAACCAGAGAAACACACGUGGUGCUAUAUUACCUGGUA [U53G G57C],0.202
5,GUCCUCUUUCACGUGCGCGUGAAAGAGAGAAGUGAACCAGAGAAACACACGUGGUGGUAUAUUACCUCGUA [U53G G68C],0.18
6,GUCCUCUUUCACGUGCGCGUGAAAGAGAGAAGUGAACCAGAGAAACACACGUGGUGGUAUAUUACCUUGUA [U53G G68U],0.187
7,GUCCUCUUUCACGUGCGCGUGAAAGAGAGAAGUGAACCAGAGAAACACACGUUAUGGCAUAUUACCUGGUA [G54A U58C],0.635
8,GUCCUCUUUCACGUGCGCGUGAAAGAGAGAAGUGAACCAGAGAAACACACGUUAUGGGAUAUUACCUGGUA [G54A U58G],0.178
9,GUCCUCUUUCACGUGCGCGUGAAAGAGAGAAGUGAACCAGAGAAACACACGUUCUGGUAUAUUACCUGGCA [G54C U70C],0.146
10,GUCCUCUUUCACGUGCGCGUGAAAGAGAGAAGUGAACCAGAGAAACACACGUCGUGGUAUACUACCUGGUA [U53C U62C],0.347
11,GUCCUCUUUCACGUGCGCGUGAAAGAGAGAAGUGAACCAGAGAAACACACGUUAUGGUAUAUUACCUCGUA [G54A G68C],0.208
12,GUCCUCUUUCACGUGCGCGUGAAAGAGAGAAGUGAACCAGAGAAACACACGUUCUCGUAUAUUACCUGGUA [G54C G56C],0.286
13,GUCCUCUUUCACGUGCGCGUGAAAGAGAGAAGUGAACCAGAGAAACACACGUCGUGCUAUAUUACCUGGUA [U53C G57C],0.244
14,GUCCUCUUUCACGUGCGCGUGAAAGAGAGAAGUGAACCAGAGAAACACACGUCGUGAUAUAUUACCUGGUA [U53C G57A],0.326
15,GUCCUCUUUCACGUGCGCGUGAAAGAGAGAAGUGAACCAGAGAAACACACGUUAUAGUAUAUUACCUGGUA [G54A G56A],0.0848
16,GUCCUCUUUCACGUGCGCGUGAAAGAGAGAAGUGAACCAGAGAAACACACGUUAUUGUAUAUUACCUGGUA [G54A G56U],0.104
17,GUCCUCUUUCACGUGCGCGUGAAAGAGAGAAGUGAACCAGAGAAACACACGUUAUGGUAUACUACCUGGUA [G54A U62C],0.195
18,GUCCUCUUUCACGUGCGCGUGAAAGAGAGAAGUGAACCAGAGAAACACACGUCGUGGUAUAUUACCUGAUA [U53C G69A],0.607
19,GUCCUCUUUCACGUGCGCGUGAAAGAGAGAAGUGAACCAGAGAAACACACGUCGUGGUAUAUUACCUGCUA [U53C G69C],0.43
20,GUCCUCUUUCACGUGCGCGUGAAAGAGAGAAGUGAACCAGAGAAACACACGUUUUGGUAUAUUAUCUGGUA [G54U C65U],0.171
21,GUCCUCUUUCACGUGCGCGUGAAAGAGAGAAGUGAACCAGAGAAACACACGUUCUGGUGUAUUACCUGGUA [G54C A59G],0.0783
22,GUCCUCUUUCACGUGCGCGUGAAAGAGAGAAGUGAACCAGAGAAACACACGUUCUGGUUUAUUACCUGGUA [G54C A59U],0.18
23,GUCCUCUUUCACGUGCGCGUGAAAGAGAGAAGUGAACCAGAGAAACACACGUCGUUGUAUAUUACCUGGUA [U53C G56U],0.196
24,GUCCUCUUUCACGUGCGCGUGAAAGAGAGAAGUGAACCAGAGAAACACACGUCAUGGUAUAUUACCUGGUA [U53C G54A],0.418
25,GUCCUCUUUCACGUGCGCGUGAAAGAGAGAAGUGAACCAGAGAAACACACGUUAUGGUAUAUUACCGGGUA [G54A U67G],0.157
26,GUCCUCUUUCACGUGCGCGUGAAAGAGAGAAGUGAACCAGAGAAACACACGUUAUGGUAUAUUACCUGAUA [G54A G69A],0.137

row,Variant,self-cleavage
1,GUCCUCUUUCACGUGCGCGUGAAAGAGAGAAGUGAACCAGAGAAACACACGUGGUGGUAUAUUAACUGGUA [U53G C65A],0.641
2,GUCCUCUUUCACGUGCGCGUGAAAGAGAGAAGUGAACCAGAGAAACACACGUCGUGGAAUAUUACCUGGUA [U53C U58A],0.709
3,GUCCUCUUUCACGUGCGCGUGAAAGAGAGAAGUGAACCAGAGAAACACACGUUUUGGUUUAUUACCUGGUA [G54U A59U],0.178
4,GUCCUCUUUCACGUGCGCGUGAAAGAGAGAAGUGAACCAGAGAAACACACGUUUUGGUAUAUUACCUUGUA [G54U G68U],0.302
5,GUCCUCUUUCACGUGCGCGUGAAAGAGAGAAGUGAACCAGAGAAACACACGUCGUGGUAUAUUAGCUGGUA [U53C C65G],0.236
6,GUCCUCUUUCACGUGCGCGUGAAAGAGAGAAGUGAACCAGAGAAACACACGUCGUGGUAUAUUAACUGGUA [U53C C65A],1.06
7,GUCCUCUUUCACGUGCGCGUGAAAGAGAGAAGUGAACCAGAGAAACACACGUGGUGGUAUAUUACCCGGUA [U53G U67C],0.136
8,GUCCUCUUUCACGUGCGCGUGAAAGAGAGAAGUGAACCAGAGAAACACACGUGGUGGUAUAUUACCGGGUA [U53G U67G],0.119
9,GUCCUCUUUCACGUGCGCGUGAAAGAGAGAAGUGAACCAGAGAAACACACGUGGUGGUAUAUUACCAGGUA [U53G U67A],0.182
10,GUCCUCUUUCACGUGCGCGUGAAAGAGAGAAGUGAACCAGAGAAACACACGUGGGGGUAUAUUACCUGGUA [U53G U55G],0.327
11,GUCCUCUUUCACGUGCGCGUGAAAGAGAGAAGUGAACCAGAGAAACACACGUGGUGGUAUAUUACCUGCUA [U53G G69C],0.316
12,GUCCUCUUUCACGUGCGCGUGAAAGAGAGAAGUGAACCAGAGAAACACACGUCGUGGUACAUUACCUGGUA [U53C U60C],1.5
13,GUCCUCUUUCACGUGCGCGUGAAAGAGAGAAGUGAACCAGAGAAACACACGUUCUGGUAUAUUACAUGGUA [G54C C66A],0.169
14,GUCCUCUUUCACGUGCGCGUGAAAGAGAGAAGUGAACCAGAGAAACACACGUGGUGGUUUAUUACCUGGUA [U53G A59U],0.119
15,GUCCUCUUUCACGUGCGCGUGAAAGAGAGAAGUGAACCAGAGAAACACACGUGAUGGUAUAUUACCUGGUA [U53G G54A],0.569
16,GUCCUCUUUCACGUGCGCGUGAAAGAGAGAAGUGAACCAGAGAAACACACGUUCUGGUAUAUUACCUGUUA [G54C G69U],0.113
17,GUCCUCUUUCACGUGCGCGUGAAAGAGAGAAGUGAACCAGAGAAACACACGUGGUGGUACAUUACCUGGUA [U53G U60C],1.12
18,GUCCUCUUUCACGUGCGCGUGAAAGAGAGAAGUGAACCAGAGAAACACACGUGGUGGUAAAUUACCUGGUA [U53G U60A],0.44
19,GUCCUCUUUCACGUGCGCGUGAAAGAGAGAAGUGAACCAGAGAAACACACGUUAUGGUAUAUUAUCUGGUA [G54A C65U],0.102
20,GUCCUCUUUCACGUGCGCGUGAAAGAGAGAAGUGAACCAGAGAAACACACGUUAUGGUAUAUUACCUGGUC [G54A A71C],0.977
21,GUCCUCUUUCACGUGCGCGUGAAAGAGAGAAGUGAACCAGAGAAACACACGUAGUGGUAUAUUACCUGGGA [U53A U70G],0.987
22,GUCCUCUUUCACGUGCGCGUGAAAGAGAGAAGUGAACCAGAGAAACACACGUAGUGGUAUAUUACCUGGCA [U53A U70C],0.951
23,GUCCUCUUUCACGUGCGCGUGAAAGAGAGAAGUGAACCAGAGAAACACACGUGGUGGUAUAUUACUUGGUA [U53G C66U],0.552
24,GUCCUCUUUCACGUGCGCGUGAAAGAGAGAAGUGAACCAGAGAAACACACGUGGUGGUAUAUUACGUGGUA [U53G C66G],0.152
